# Measurements published in patent EP2045266A1, “Methods for treating and diagnosing a cancer secreting cath-D or Alzheimer's disease” (priority 2007, dated 2009).
# Molecular target: M6P receptors
# Experiment: cell-based or functional assay
# Sequence of pro-cath-D (52 kDa precursor of human cathepsin D), P07339 21-412 (enzyme) (P07339 21-412 limits assumed): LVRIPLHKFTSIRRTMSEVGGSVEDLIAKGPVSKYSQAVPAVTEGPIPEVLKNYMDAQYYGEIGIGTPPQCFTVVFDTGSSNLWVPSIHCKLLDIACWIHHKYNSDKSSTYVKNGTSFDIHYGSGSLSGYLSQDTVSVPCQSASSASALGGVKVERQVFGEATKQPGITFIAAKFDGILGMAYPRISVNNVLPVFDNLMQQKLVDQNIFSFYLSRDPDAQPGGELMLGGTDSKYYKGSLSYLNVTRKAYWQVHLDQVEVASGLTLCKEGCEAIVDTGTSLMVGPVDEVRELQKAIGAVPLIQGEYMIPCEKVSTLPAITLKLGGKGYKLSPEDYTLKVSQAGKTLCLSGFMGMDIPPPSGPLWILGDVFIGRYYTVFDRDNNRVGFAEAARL
substance,measurement,value
"pro-cath-D (52 kDa precursor of human cathepsin D), P07339 21-412 (enzyme)",decrease in internalization of labelled pro-cath-D by HMF fibroblasts over 3 h with excess soluble M6P (10 mM),82%
